# Data reported in patent US8524227B2, “Anti-IL-TIF antibodies” (ZymoGenetics, Inc., priority 2002, dated 2013).
# T1: IL-TIF (Homo sapiens, UniProt Q9GZX6)
# T1 sequence (Q9GZX6 13-179 limits assumed): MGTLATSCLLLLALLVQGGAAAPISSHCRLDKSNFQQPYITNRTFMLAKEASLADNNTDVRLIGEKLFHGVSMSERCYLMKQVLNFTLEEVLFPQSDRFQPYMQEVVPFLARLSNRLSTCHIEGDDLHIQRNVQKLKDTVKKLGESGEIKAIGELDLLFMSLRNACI
# T2: IL-TIF (Homo sapiens, UniProt Q9GZX6)
# T2 construct: made in house; host or cells: BHK cells
# T2 sequence (Q9GZX6 34-179): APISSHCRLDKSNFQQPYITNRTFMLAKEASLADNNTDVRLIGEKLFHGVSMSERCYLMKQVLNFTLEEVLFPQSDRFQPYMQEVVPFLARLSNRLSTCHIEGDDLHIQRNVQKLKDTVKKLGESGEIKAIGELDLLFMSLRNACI
# Columns and labels:
# [1] = DSS-induced colitis mouse model; type: in vivo, mice; conditions: for histopathology screening score: 4% DSS in drinking water
# Excerpt: Colitis was induced by DSS ingestion in Swiss Webster female mice from Charles River Laboratories. The mice were 10 and 11 weeks old at the start of the study. Mice were given 4% DSS in the drinking water for a period of 6 days (treated mice), or were given only normal drinking water (control mice). A Disease Activity Index clinical score (DAI) was used, which comprises a combination of measurements including stool quality, occult blood and weight loss. DAI was obtained daily for each mouse beginning one day after DSS treatment. After 6 days, DSS was removed from the drinking water of the treated mice. All mice were monitored by DAI clinical score until sacrifice at either 2, 7 or 10 days from the start of the study. On each of days 2 and 7, four DSS-treated mice and one control mouse were sacrificed. On day 10, four DSS-treated mice and two control mice were sacrificed. For all animals after sacrifice, the colon length was measured. Colon sections were fixed in 10% neutral buffered formalin for histologic analysis or frozen for mRNA extraction.
# Histologic index scores were obtained following the method in reference 1. Generally, the colon sections were scored blinded by a pathologist for crypt scores, hyperplastic epithelium, crypt distortion and inflammation.
# Daily, each mouse was graded as to a clinical score based on weight loss, stool consistence and intestinal bleeding. Higher scores were assigned for increasing amounts of weight loss, diarrhea and bleeding. The daily score for each mouse was the mean grade obtained from the three results/observations.
# IL-TIF [2] = target: T1, IL-TIF; assay: Inhibition of IL-TIF-induced proliferation of BaF3/CRF2-4/zcytor11 cells by soluble receptors; type: cell-based; conditions: 100 pg/ml IL-TIF
# Description: BaF3/CRF2-4/zcytor11 cells described herein were spun down and washed in PBS 2 times to ensure the removal of the mIL-3, and then spun a third time and re-suspended in the complete media (RPMI 1640, 10% FBS, 1% GlutaMAX, 1% Sodium Pyruvate), but without mIL-3 (hereinafter referred to as “mIL-3 free media”). Cells were then counted in a hemocytometer. Cells were plated in a 96-well format at 5000 cells per well in a volume of 100 μl per well using the mIL-3 free media.
# IL-TIF protein (SEQ ID NO:3) was diluted to 200 pg/ml in mIL-3 free media. Zcytor16-Fc4 fusion protein (described herein) was diluted to 1 μg/ml in the mIL-3 free/IL-TIF media on the top row of the plate, and then diluted serially 1:2 down the remaining 7 rows on the 96-well plate, leaving a volume of 100 μl in each well. This was then added to the 100 μl of cells, for a final IL-TIF concentration of 100 pg/ml in all wells, and final Zcytor16-Fc4 concentrations of approximately […], 0.016, and 0.008 μg/ml in a total assay volume of 200 μl. CRF2-4/zcytor11-Fc4 was diluted to 8 μg/ml in the mIL-3 free/IL-TIF media on the top row of the plate, and then diluted serially 1:2 down the remaining 7 rows on the 96-well plate, leaving a volume of 100 μl in each well. This was then added to the 100 μl of cells, for a final IL-TIF concentration of 100 pg/ml in all wells, and final CRF2-4/zcytor11-Fc4 concentrations of approximately […], 0.25, 0.125 and 0.063 μg/ml, in a total assay volume of 200 The assay plates were incubated at 37° C., 5% CO2 for 4 days at which time Alamar Blue (Accumed, Chicago, Ill.) was added at […]. Plates were again incubated at 37° C., 5% CO2 for 16 hours. Alamar Blue gives a fluourometric readout based on number of live cells, and is thus a direct measurement of cell proliferation in comparison to a negative control. Plates were read on the Wallac Victor 2 1420 Multilabel Counter (Wallac, Turku, Finland) at wavelengths 530 (Excitation) and 590 (Emmssion). […] IL-TIF alone stimulated the cells 13-fold over background.
# [3] = IL-TIF-induced acanthosis, subcutaneous mini-osmotic pump; type: in vivo, mice; conditions: for Average Acanthosis: score 0-4
# Description: Mice (female, C3H/HEJ, 8 weeks old; Jackson Labs, Bar Harbor, Me.) were divided into three groups of six animals and one group of 4. Human BHK-produced IL-TIF was administered by constant infusion via mini-osmotic pumps, resulting in local and steady state serum concentrations proportional to the concentration of the IL-TIF contained in the pump. Alzet mini-osmotic pumps (model 2002; Alza corporation Palo Alto, Calif.) were loaded under sterile conditions with IL-TIF protein (A601F, 0.22 mL) diluted in phosphate buffered saline (pH 7.0) to a concentration within the pump of 2 mg/mL for group 1 mice, 0.2 mg/mL for group 2 mice, 0.02 mg/mL for group 3 mice, or 0 mg/mL (diluent only) for group 4 mice. Pumps were implanted subcutaneously in mice through a 1 cm incision in the dorsal skin, and the skin was closed with sterile wound closures. These pumps are designed to deliver their contents at a rate of 0.5 μl per hour over a period of 14 days. Using this nominal rate of infusion, dose levels were calculated to be 24 μg/day, 2.4 μg/day, 0.24 μg/day and 0 μg/day for groups 1-4, respectively.
# At the end of the 14-day period, the mice were euthanized and an approximately 1 cm square sample of skin surrounding the pump area was collected from each mouse. The skin was fixed in 10% neutral buffered formalin. Formalin fixed samples of skin were embedded in paraffin, routinely processed, sectioned at 5 um and stained with hematoxylin and eosin. The tissues were microscopically examined in blinded fashion by an ACVP board certified veterinary pathologist. […] In addition, the skin of selected groups was imaged with a CoolSnap digital camera (Roper Scientific, Inc., San Diego, Calif.) and epidermal thickness measured using histomorphometry software (Scion Image for Windows, v. 4.02, Scion Corp., Frederick, Md.).
# K-562 cells = assay: K-562 cytotoxicity assay (MTT); type: cell-based, human; conditions: 72 h
# Description: The K-562 cell line (CRL-243, ATCC) has attained widespread use as a highly sensitive in vitro target for cytotoxicity assays. K-562 blasts are multipotential, hematopoietic malignant cells that spontaneously differentiate into recognizable progenitors of the erythrocytic, granulocytic and monocytic series (Lozzio, B B et al., Proc. Soc. Exp. Biol. Med. 166: 546-550, 1981).
# K562 cells were plated at 5,000 cells/well in 96-well tissue culture clusters (Costar) in DMEM phenol-free growth medium (Life Technologies) supplemented with pyruvate and 10% serum (HyClone). Next day, human recombinant IL-TIF (Example 19), BSA control or retinoic acid (known to be cytotoxic to K562 cells) were added. Seventy-two hours later, the vital stain MTT (Sigma, St Louis, Mo.), a widely used indicator of mitochondrial activity and cell growth, was added to the cells at a final concentration of 0.5 mg/ml. MTT is converted to a purple formazan derivative by mitochondrial dehydrogenases. Four hours later, converted MTT was solubilized by adding an equal volume of acidic isopropanol (0.04N HCl in absolute isopropanol) to the wells. Absorbance was measured at 570 nm, with background subtraction at 650 nm. In this experimental setting, absorbance reflects cell viability. Results shown in Table 7 are expressed as % cytotoxicity.
# IL-TIF [4] = target: T2, IL-TIF; assay: Effect of zcytor16 on IL-TIF-induced acanthosis; type: in vivo, mice; conditions: for Average Acanthosis: day 8, score 0-3
# Description: Mice (female, C3H/HEJ, 8 weeks old; Jackson Labs, Bar Harbor, Me.) were divided into eight groups of eight animals each. IL-TIF was administered by constant infusion via mini-osmotic pumps, as described in example 32a. Alzet mini-osmotic pumps (model 2001; Alza corporation Palo Alto, Calif.) were loaded under sterile conditions with IL-TIF protein (A#601F, 0.22 mL) diluted in phosphate buffered saline (pH 7.0) to a concentration within the pump of 0.22 mg/mL for group 1-2 mice, 0.45 mg/mL for group 3-4 mice, 0.9 mg/mL for group 5-6 mice, or 0 mg/mL (diluent only) for group 7-8 mice. These pumps are designed to deliver their contents at a rate of 0.5 μl per hour over a period of 14 days. Using this nominal rate of infusion, dose levels were calculated to be […] and 0 μg/day for groups 7-8. For each pair of groups at a given dose level of IL-TIF, one of the groups was injected three times (days 1, 3, and 5) with 0.1 mg of human zcytor16 Fc protein (described herein) by the interperitoneal route. The other group was injected in the same fashion with vehicle (PBS).
# On day 8 of the study, mice were euthanized and an approximately 1 cm square sample of skin surrounding the pump area was collected from each mouse. The skin was fixed in 10% neutral buffered formalin. Formalin fixed samples of skin were embedded in paraffin, routinely processed, sectioned at 5 um and stained with hematoxylin and eosin. The tissues were microscopically examined in blinded fashion by an ACVP board certified veterinary pathologist. This study was scored in a different manner than the previous example. The number of layers in the epidermis, from stratum basalis to stratum granulosum, was determined Based on the results, the sections were scored as follows: O-normal (2-3 layers), 1-mild thickening (3-4 layers), 2-moderate thickening (4-6 layers) and 3-severe thickening (>6 layers).
molecule,measurement,setting,value
dextran sulfate sodium [DSS],histopathology screening score,[1]; day 2,8.8
same,histopathology screening score,[1]; day 7,21
same,histopathology screening score,[1]; day 10,18
same,colon lengths vs non-treated controls,[1]; days 7 and 10,somewhat shorter
"CRF2-4/zcytor11-Fc4: secreted heterodimer of extracellular domains of hzcytor11 and CRF2-4, each fused to Fc4 (protein, left off: small tags and cut ends, secreted heterodimer of extracellular domains of hzcytor11 and CRF2-4, each fused to Fc4) chain 1: HAPEDPSDLLQHVKFQSSNFENILTWDSGPEGTPDTVYSIEYKTYGERDWVAKKGCQRITRKSCNLTVETGNLTELYYARVTAVSAGGRSATKMTDRFSSLQHTTLKPPDVTCISKVRSIQMIVHPTPTPIRAGDGHRLTLEDIFHDLFYHLELQVNRTYQMHLGGKQREYEFFGLTPDTEFLGTIMICVPTWAKESAPYMCRVKTLPDRTWTGSGSGSGSEPRSSDKTHTCPPCPAPEAEGAPSVFLFPPKPKDTLMISRTPEVTCVVVDVSHEDPEVKFNWYVDGVEVHNAKTKPREEQYNSTYRVVSVLTVLHQDWLNGKEYKCKVSNKALPSSIEKTISKAKGQPREPQVYTLPPSRDELTKNQVSLTCLVKGFYPSDIAVEWESNGQPENNYKTTPPVLDSDGSFFLYSKLTVDKSRWQQGNVFSCSVMHEALHNHYTQKSLSLSPGKLVPRGSGSGGEYMPME chain 2: MVPPPENVRMNSVNFKNILQWESPAFAKGNLTFTAQYLSYRIFQDKCMNTTLTECDFSSLSKYGDHTLRVRAEFADEHSDWVNITFCPVDDTIIGPPGMQVEVLDDSLHMRFLAPKIENEYETWTMKNVYNSWTYNVQYWKNGTDEKFQITPQYDFEVLRNLEPWTTYCVQVRGFLPDRNKAGEWSEPVCEQTTHDETVPSGSGSGSGSEPRSSDKTHTCPPCPAPEAEGAPSVFLFPPKPKDTLMISRTPEVTCVVVDVSHEDPEVKFNWYVDGVEVHNAKTKPREEQYNSTYRVVSVLTVLHQDWLNGKEYKCKVSNKALPSSIEKTISKAKGQPREPQVYTLPPSRDELTKNQVSLTCLVKGFYPSDIAVEWESNGQPENNYKTTPPVLDSDGSFFLYSKLTVDKSRWQQGNVFSCSVMHEALHNHYTQKSLSLSPGKGSGGHHHHHH",concentrations completely inhibiting proliferation,IL-TIF [2],8 µg/mL
same,concentrations partially inhibiting proliferation,IL-TIF [2],0.125 to 4 µg/mL
same,inhibition of the proliferative effect of IL-TIF,IL-TIF [2],much weaker inhibition
same,inhibition at lowest concentration,IL-TIF [2]; 63 ng/ml,barely detectable
"IL-TIF: pro-inflammatory cytokine polypeptide, SEQ ID NO:3; also designated IL-22 (protein, listed as Homo sapiens) MGTLATSCLLLLALLVQGGAAAPISSHCRLDKSNFQQPYITNRTFMLAKEASLADNNTDVRLIGEKLFHGVSMSERCYLMKQVLNFTLEEVLFPQSDRFQPYMQEVVPFLARLSNRLSTCHIEGDDLHIQRNVQKLKDTVKKLGESGEIKAIGELDLLFMSLRNACI",Average Acanthosis,"[3]; 0.24 μg IL-TIF/day, 14 days",2.2
same,Measured Thickness,"[3]; 2.4 μg IL-TIF/day, 14 days",67.5 pixels
same,Average Acanthosis,"[3]; 2.4 μg IL-TIF/day, 14 days",2.4
same,Average Acanthosis,"[3]; 24 μg IL-TIF/day, 14 days",3.0
same,skin histology,[3]; 2.4 and 24 μg/day,epidermal thickening
same,cell infiltrates,[3]; not observed in vehicle treated controls,mononuclear cell infiltrates in the epidermis
same,% Cytotoxicity,K-562 cells; 100 ng/ml,16.2%
same,% Cytotoxicity,K-562 cells; 300 ng/ml,32%
same,skin histology,"IL-TIF [4]; IL-TIF at 2.5, 5, 10 μg/day",epidermal thickening
same,Average Acanthosis,IL-TIF [4]; pump 2.5 μg IL-TIF/day + 100 μL vehicle (3 injections),1.1
same,Average Acanthosis,IL-TIF [4]; pump 5 μg IL-TIF/day + 100 μL vehicle (3 injections),2.0
same,Average Acanthosis,IL-TIF [4]; pump 10 μg IL-TIF/day + 100 μL vehicle (3 injections),2.0
